This passage reports kon results from PMC3962490, “The Yeast Ess1 Prolyl Isomerase Controls Swi6 and Whi5 Nuclear Localization” (G3: Genes|Genomes|Genetics, 2014).

The test deals with all the peptides, including the phosphorylated CTD peptide. The test is described as follows: BLI; Octet RED, 24°; N-terminally biotinylated peptides immobilised on streptavidin biosensors; Ess1 in solution (3, 10, 30 μM); 20 mM Tris-HCl pH 8.0, 1 mg/mL BSA; no-peptide sensor subtracted; apparent dissociation constants (Kapp) from kinetic and equilibrium data, considering only the predominant faster-dissociating signal; for unphosphorylated peptides Kapp estimated from the signal at 30 μM Ess1.

B1: Recombinant S. cerevisiae Ess1 protein (enzyme)
chain: MPSDVASRTGLPTPWTVRYSKSKKREYFFNPETKHSQWEEPEGTNKDQLHKHLRDHPVRVRCLHILIKHKDSRRPASHRSENITISKQDATDELKTLITRLDDDSKTNSFEALAKERSDCSSYKRGGDLGWFGRGEMQPSFEDAAFQLKVGEVSDIVESGSGVHVIKRVG
Regarding B1, the on-rate (kon) is 17500 to 27100 M⁻¹ s⁻¹.

As a reminder, the kon is the rate constant with which the complex forms.
